# Biological target: the molecule itself
# Assay: SEC-MALS; 50 μl of purified protein injected on Superdex 200 10/300; 50 mM Tris pH 7.5, 100 mM NaCl, 2% glycerol, 1 mM TCEP, 2 mM MgCl2, ±1 mM ATP; self-association (monomer or dimer)
protein,measurement,value
"PDK1^SKD-PIF S241A (PIFtide fused through a (GS)4 linker to the C-terminus of the short kinase domain, S241A) (other, 3-phosphoinositide-dependent kinase 1 (PDK1), human, residues 73-359 (short kinase domain); minimal poly Gly-Ser (GS)4 linker; PIFtide, a peptide derived from the hydrophobic motif of PRK2; also called C-terminal PIFtide SKD fusion S241A; dimer; source: baculovirus-infected Sf9 insect cells, purified (glutathione sepharose, 3C cleavage, HiTrap Q, gel filtration); not shown: GST, N-terminal, …) QPRKKRPEDFKFGKILGEGSFSTVVLARELATSREYAIKILEKRHIIKENKVPYVTRERDVMSRLDHPFFVKLYFTFQDDEKLYFGLSYAKNGELLKYIRKIGSFDETCTRFYTAEIVSALEYLHGKGIIHRDLKPENILLNEDMHIQITDFGTAKVLSPESKQARANAFVGTAQYVSPELLTEKSACKSSDLWALGCIIYQLVAGLPPFRAGNEYLIFQKIIKLEYDFPEKFFPKARDLVEKLLVLDATKRLGCEEMEGYGPLKAHPFFESVTWENLHQQTPPKLTGSGSGSGSQEMFRDFDYIADWC",stoichiometry N,2

# From article PMC8986801, “Activation of the essential kinase PDK1 by phosphoinositide-driven trans-autophosphorylation” (Nature Communications, 2022)
